{"source": "paper PMC3834811", "biological_target": "AtWRKY50 DBD_K26Q (Arabidopsis thaliana, UniProt Q8VWQ5 =M+99-173, K123Q;internal_change)", "assay": "DPI-ELISA"}
{"binder": "W2 (dsDNA) DNA 1: AAATTATTCAGCCATCAAAAGTTGACCAATAAT DNA 2: ATTATTGGTCAACTTTTGATGGCTGAATAATTT", "values": [{"measurement": "binding result", "result": "binds"}]}
